Assay [1] deals with programmed cell death protein 1 (PD-1) on tumor infiltrating lymphocytes (human) (UniProt Q15116). Description: flow cytometry of ovarian tumor digest OV8074; EH12.2H7 staining; percent of CD3+ cells stained.
Assay [2] shares this target. Description: flow cytometry of head and neck tumor digest H3046; EH12.2H7 staining; percent of CD3+ cells stained.
The target is the same in assay [3]. Description: flow cytometry of melanoma tumor digest M1156; EH12.2H7 staining; percent of CD3+ cells stained.

UniProt Q15116, sequence (Q15116 25-288): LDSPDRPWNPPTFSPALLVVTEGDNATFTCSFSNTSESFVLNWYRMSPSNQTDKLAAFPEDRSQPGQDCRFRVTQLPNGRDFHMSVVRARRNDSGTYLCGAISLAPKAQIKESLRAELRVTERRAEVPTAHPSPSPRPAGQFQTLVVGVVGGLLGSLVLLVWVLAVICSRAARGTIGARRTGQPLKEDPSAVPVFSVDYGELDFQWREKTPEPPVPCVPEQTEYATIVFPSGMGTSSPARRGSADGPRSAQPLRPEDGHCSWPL

B1: anti-PD-1 antibody clone EH12.2H7 (BioLegend, Cat #329906) (antibody, from another filing, V domains shown)
VH: QVQLQQSGAELAKPGASVQMSCKASGYSFTSSWIHWVKQRPGQGLEWIGYIYPSTGFTEYNQKFKDKATLTADKSSSTAYMQLSSLTSEDSAVYYCARWRDSSGYHAMDYWGQGTSVTVSS
VL: DIVLTQSPASLTVSLGQRATISCRASQSVSTSGYSYMHWYQQKPGQPPKLLIKFGSNLESGIPARFSGSGSGTDFTLNIHPVEEEDTATYYCQHSWEIPYTFGGGTKLEIK
B1: the Pre-sort % PD-1+ (of CD3+) came out at 70% in assay [1], 13% in assay [2] and 93% in assay [3].

(Values after US20230039976A1.)
